How the values were obtained:
[1] = system: NEN patients (Ki-67 ≥ 10%); parameters: method as in Lu et al. [2020]; settings: NEN patients (Ki-67 ≥ 10%) after failure of first line therapy; ref Lu et al. [2020]; cited from earlier work
[2] = Phase 1 trial: pharmacokinetics of surufatinib and toripalimab (non-compartmental analysis); format: in vivo, human
Source text: Blood samples were collected for PK evaluation at multiple time points on Cycle 1 Day 1, Cycle 2 Day 1, and Cycle 3 Day 1 for surufatinib and toripalimab, respectively.
DLT events were based on the DLT evaluable population, including patients who received at least 1 cycle of treatment and completed all safety assessments within the DLT assessment window or discontinued early due to DLT in the dose-escalation stage. All safety analyses, progression-free survival (PFS), and overall survival (OS) statistics were based on the safety population, including patients who received at least 1 dose of any study drug. All efficacy endpoints, excluding PFS and OS, were analyzed based on the efficacy evaluable population, including all patients who received at least 1 dose of any study drug and had tumor assessment at baseline and post drug administration prior to initiation of new anti-cancer therapies. The PK analysis was based on the PK population, which included all patients who received at least one dose of the study drug, had at least one PK sample collected and analyzed, and had no protocol deviation that might affect the PK data.
Two-sided 95% confidence interval (CI) of ORR and DCR were computed using the Exact (Clopper–Pearson) method. For time-to-event variables [PFS, OS, DoR (duration of response) and TTR (time to response)], median event time as well as the corresponding 95% CI were estimated using Kaplan–Meier method. All statistical analyses were performed using SAS 9.4 software. Adverse events (AEs) were graded by NCI CTCAE (Common Terminology Criteria for Adverse Events) v4.03, and coded using the Medical Dictionary for Regulatory Activities (MedDRA) v23.1. Treatment-related AEs (TRAEs) referred to AEs related to surufatinib or toripalimab, which were judged by the investigators. PK parameters were calculated by non-compartmental analysis using Phoenix WinNonlin v8.0.

[3] = surufatinib 200 mg + toripalimab 240 mg, C1D1, N 6
[4] = surufatinib 200 mg + toripalimab 240 mg, C2D1, N 4
[5] = surufatinib 200 mg + toripalimab 240 mg, C3D1, N 3
[6] = surufatinib 250 mg + toripalimab 240 mg, C1D1, N 12
[7] = surufatinib 250 mg + toripalimab 240 mg, C2D1, N 11
[8] = surufatinib 250 mg + toripalimab 240 mg, C3D1, N 10
[9] = surufatinib 300 mg + toripalimab 240 mg, C1D1, N 12
[10] = surufatinib 300 mg + toripalimab 240 mg, C2D1, N 10
[11] = surufatinib 300 mg + toripalimab 240 mg, C3D1, N 9

In the case of toripalimab, the DCR [1] is listed as 35%, the ORR [1] is listed as 20% and the “Toripalimab accumulation ratio of AUC0-τ” value ([2]; Cycle 2 Day 1 compared to Cycle 1 Day 1, 240 mg Q3W) is listed as 1.3–1.5. The “Toripalimab exposure (AUC0-τ) across surufatinib dose levels” value ([2]; concomitant administration with surufatinib at different dose levels) was “similar”, the “Toripalimab AUC0-τ, geometric mean (CV%)” value [2, 3] was 15925 (22.8) h×µg/mL and the “Toripalimab CL, geometric mean (CV%)” value [2, 3] was 11.1 (30.8) mL/h. The “Toripalimab Cmax, geometric mean (CV%)” value [2, 3] was 78.1 (15.2) µg/mL, the “Toripalimab Tmax, median” value [2, 3] was 1.96 h and the “Toripalimab t1/2, median” value [2, 3] was 231 h. For the same substance, the “Toripalimab AUC0-τ, geometric mean (CV%)” value [2, 4] was 21512 (26.4) h×µg/mL, the “Toripalimab CL, geometric mean (CV%)” value [2, 4] was 11.2 (24.3) mL/h and the “Toripalimab Cmax, geometric mean (CV%)” value [2, 4] was 96.2 (17.9) µg/mL. For the same substance, the “Toripalimab Tmax, median” value [2, 4] was 2.63 h, the “Toripalimab t1/2, median” value [2, 4] was 320 h and the “Toripalimab AUC0-τ, geometric mean (CV%)” value [2, 5] was 24626 (34.9) h×µg/mL. The “Toripalimab CL, geometric mean (CV%)” value [2, 5] was 9.75 (29.6) mL/h, the “Toripalimab Cmax, geometric mean (CV%)” value [2, 5] was 110 (29.0) µg/mL and the “Toripalimab Tmax, median” value [2, 5] was 1.45 h. The “Toripalimab t1/2, median” value [2, 5] was 390 h, the “Toripalimab AUC0-τ, geometric mean (CV%)” value [2, 6] was 14142 (25.6) h×µg/mL and the “Toripalimab CL, geometric mean (CV%)” value [2, 6] was 13.0 (32.9) mL/h. The “Toripalimab Cmax, geometric mean (CV%)” value [2, 6] was 71.4 (21.6) µg/mL, the “Toripalimab Tmax, median” value [2, 6] was 1.85 h and the “Toripalimab t1/2, median” value [2, 6] was 237 h. The “Toripalimab AUC0-τ, geometric mean (CV%)” value [2, 7] was 17176 (31.5) h×µg/mL, the “Toripalimab CL, geometric mean (CV%)” value [2, 7] was 14.0 (37.2) mL/h and the “Toripalimab Cmax, geometric mean (CV%)” value [2, 7] was 83.8 (24.5) µg/mL. The “Toripalimab Tmax, median” value [2, 7] was 1.13 h, the “Toripalimab t1/2, median” value [2, 7] was 259 h and the “Toripalimab AUC0-τ, geometric mean (CV%)” value [2, 8] was 20157 (39.5) h×µg/mL. For the same substance, the “Toripalimab CL, geometric mean (CV%)” value [2, 8] was 11.9 (52.0) mL/h, the “Toripalimab Cmax, geometric mean (CV%)” value [2, 8] was 97.4 (25.0) µg/mL and the “Toripalimab Tmax, median” value [2, 8] was 1.87 h. The “Toripalimab t1/2, median” value [2, 8] was 246 h, the “Toripalimab AUC0-τ, geometric mean (CV%)” value [2, 9] was 16458 (25.0) h×µg/mL and the “Toripalimab CL, geometric mean (CV%)” value [2, 9] was 11.0 (22.1) mL/h. The “Toripalimab Cmax, geometric mean (CV%)” value [2, 9] was 81.2 (24.5) µg/mL, the “Toripalimab Tmax, median” value [2, 9] was 1.12 h and the “Toripalimab t1/2, median” value [2, 9] was 234 h. The “Toripalimab AUC0-τ, geometric mean (CV%)” value [2, 10] was 20660 (33.7) h×µg/mL, the “Toripalimab CL, geometric mean (CV%)” value [2, 10] was 11.6 (27.6) mL/h and the “Toripalimab Cmax, geometric mean (CV%)” value [2, 10] was 98.1 (27.5) µg/mL. For the same substance, the “Toripalimab Tmax, median” value [2, 10] was 1.26 h, the “Toripalimab t1/2, median” value [2, 10] was 246 h and the “Toripalimab AUC0-τ, geometric mean (CV%)” value [2, 11] was 20063 (46.6) h×µg/mL. The “Toripalimab CL, geometric mean (CV%)” value [2, 11] was 12.0 (35.8) mL/h, the “Toripalimab Cmax, geometric mean (CV%)” value [2, 11] was 103 (33.2) µg/mL and the “Toripalimab Tmax, median” value [2, 11] was 1.17 h. The “Toripalimab t1/2, median” value [2, 11] was 241 h.
